According to publication PMC6804595 (2018):
Residue numbers refer to the chain shown, from its start.

What was measured:
Test in all cases: SPR
[1] = molecular target: T1, CD147 E64A (human)
T1 chain: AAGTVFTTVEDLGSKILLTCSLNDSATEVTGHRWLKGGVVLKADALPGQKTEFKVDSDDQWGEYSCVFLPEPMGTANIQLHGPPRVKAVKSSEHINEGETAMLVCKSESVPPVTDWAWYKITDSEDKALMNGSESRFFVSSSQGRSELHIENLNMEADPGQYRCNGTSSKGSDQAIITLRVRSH

[2] = molecular target: T2, CD147 L62A (human)
T2 chain: T1 chain with L41A, A43E

[3] = molecular target: T3, CD147 K63A (human)
T3 chain: T1 chain with K42A, A43E

[4] = molecular target: T4, CD147 K63A/D65A double mutant (human)
T4 chain: T1 chain with K42A, A43E, D44A

[5] = molecular target: T5, ectodomain of CD147 (CD147_(ecto)), wild type (human)
T5 chain: T1 chain with A43E

[6] = molecular target: T6, CD147 D65A (human)
T6 chain: T1 chain with A43E, D44A

[7] = molecular target: CD147 V61A

- Kd [1]: 7.07 nM
- Kd [2]: 2.71 nM
- Kd [3]: 576 nM
- Kd [4]: 115 nM
- Kd [5]: 0.566 nM
- Kd [6]: 12.7 nM
- Kd [7]: 0.97 nM
B1: anti-CD147 mAb 5A12 (antibody, V domains shown)
VH: EVKLEESGGGLVQPGGSMKLSCVASGFTFSNYWMHWVRQSPEKGLEWVAEIRLKSINYATHYAESVKGRFTISRDDSKSSVYLQMNNLRTEDTGIYYCTSYDYEYWGQGTLITVSA
VL: NIVMTQSPKSMSMSVGERVTLSCKASEIVGTYVSWYQQKPEQSPKLLIYGASNRYTGVPDRFTGSGSATDFTLTISSVQAEDLADYHCGQSYSYPFTFGSGTKLEIK
